A short description of this data set: protein stability index of a GFP-peptide fusion (GPS, HEK-293T) (PSI 1-6); higher = more stable.
Setting [1] is: treatment: DMSO, c terminus: a fixed tail appended.
[2] abbreviates: treatment: MLN4924 1 uM, 8 h, c terminus: a fixed tail appended.
The mark [3] stands for this setting: treatment: DMSO, c terminus: native.
The mark [4] stands for this setting: treatment: MLN4924 1 uM, 8 h, c terminus: native.

± gives the standard deviation.
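Note: 24-mer peptide tiles fused after GFP, lentivirally expressed, FACS-sorted into six equal bins by GFP/DsRed ratio, decoded by Illumina sequencing, PSI is the read-weighted mean bin number.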

For VRLHDSISEEGHHYLIFDLVTGGE [CAMK2A], the protein stability index runs as follows: under setting [1], 2.23 ± 0.4; under setting [2], 2.26 ± 0.18.
With VRQINRKTPVPGKARKKSSCQLL [RAP1B], the protein stability index by setting is: under setting [3], 4.5 ± 0.27; under setting [4], 4.44 ± 0.18.
Consider VRVPNGGGGGGGLPISTVREVALL [CDK4], for which the protein stability index stood at 2.5 ± 0.33 under setting [1] and 2.63 ± 0.23 under setting [2].
VRWLRPVHRQLGEANEEFALRVQQ [AUP1]: the protein stability index reads like this: under setting [1], 3.1 ± 0.25; under setting [2], 3.02 ± 0.19.
Consider VSQLYPESIVPIPSSNEEIRLVDD [INTS4], for which the protein stability index stood at 4.92 ± 0.18 under setting [1] and 4.88 ± 0.081 under setting [2].
Taken in the same sequence, the figures for VSQQTGSPGKQPGENSDCHRDSSQ [ZNF8] were 5.31 ± 0.47 and 5.47 ± 0.21.
Turning to VTINIQDLLSCSNFAVQHRYLFEE [MATN2], the protein stability index was 2.86 ± 0.35 under setting [1] and 2.87 ± 0.73 under setting [2].
Take VTPRTALLTWTEPPVRPAGYLLSF [TNXB]: the protein stability index is, setting by setting: under setting [1], 2.42 ± 0.29; under setting [2], 2.2 ± 0.26.
VVAMARKLQDVFEMRFAKMPDEPV [BRD3] yielded a protein stability index under setting [1] of 2.49 ± 0.29 and a protein stability index under setting [2] of 2.64 ± 0.35.
For VVGALPAEHQFSFMEKRNQWLVSQ [TRAF3IP2], the protein stability index by setting is: under setting [1], 2.36 ± 0.24; under setting [2], 2.65 ± 0.26.
Turning to VVGDNAVGKTRLICARACNTTLTQ [RHOBTB1], the protein stability index reads like this: under setting [1], 2.69 ± 0.32; under setting [2], 2.73 ± 0.38.
Take VVGTPCYISPELCEGKPYNQKSDI [NEK8]: the protein stability index was determined as 3.29 ± 0.38 under setting [1] and 3.49 ± 0.56 under setting [2].
In the case of VVHDWLYSYVYQDGLRLLGARARG [SOAT2], the protein stability index under setting [1] is 2.46 ± 0.44 and the protein stability index under setting [2] is 2.28 ± 0.25.
Regarding VVSMTTVGYGDMYPVTIGGKIVGS [KCNA1], the protein stability index by setting is: under setting [1], 2.29 ± 0.36; under setting [2], 2.14 ± 0.24.
Taken in the same sequence, the figures for VYSDHTNTNNLTFLMDLPSAGRSM [RNF180] were 2.29 ± 0.45 and 2.79 ± 0.42.
WDPNTGFDLNNLDPELKNLFDMCG [WASL] returned a protein stability index under setting [1] of 3.05 ± 0.36 and a protein stability index under setting [2] of 3.1 ± 0.37.
Taken in the same sequence, the figures for WEISWPLEQRGTHAVVGVATALAP [SPSB2] were 2.44 ± 0.26 and 2.73 ± 0.36.
Taken in the same sequence, the figures for WIGNEWLPSLGLPQYRSYFMECLV [PPFIA4] were 3.67 ± 0.24 and 2.15 ± 0.088.
Turning to WIHRPGCRCKNSNTVYCKLESCPS [SPRY1], the protein stability index runs as follows: under setting [1], 2.62 ± 0.26; under setting [2], 3.21 ± 0.78.
Consider WIIKKHNTNSDPLDPSFPVEFVRH [POMT2], for which the protein stability index by setting is: under setting [1], 2.54 ± 0.29; under setting [2], 2.39 ± 0.51.
Regarding WKNFDERKEMATILSKMPKPKPPP [CCNC], the protein stability index reads like this: under setting [1], 3.63 ± 0.28; under setting [2], 3.64 ± 0.31.
With WLMTYVGAVFNGITLLILAELLIF [RTN3], under setting [1], the protein stability index was determined as 2.49 ± 0.28.
On to WLSTAPTEPLTHWYQVRCLFQSPL [CARM1], for which the protein stability index is, setting by setting: under setting [1], 2.44 ± 1; under setting [2], 2.19 ± 0.4.
With WLSYRLLKASEPGLFAVGEHTGEV [PCDHGA10], the protein stability index reads like this: under setting [1], 2.35 ± 0.11; under setting [2], 2.31 ± 0.16.
As for WPARVLDISLGQKEDGEPSWREAK [PWWP2B], the protein stability index under setting [1] is 4.18 ± 0.12 and the protein stability index under setting [2] turned out to be 4.27 ± 0.11.
In the case of WTHDGIDINNNFPDLNTLLWEAED [CPXM2], the protein stability index amounted to 3.44 ± 0.098 under setting [1] and 3.8 ± 0.45 under setting [2].
As to WTLRRTKELRKDYQGPGTRRLQEV [DYRK1B], the protein stability index is, setting by setting: under setting [1], 3.11 ± 0.32; under setting [2], 3.1 ± 0.32.
As to YAMGITECDNMLMLLSVSQSMSEE [SEPHS2], the protein stability index runs as follows: under setting [1], 2.16 ± 0.31; under setting [2], 2.44 ± 0.22.
On to YFFKRPYPFVLFYSKFHGLEMCVD [KMT2E], for which the protein stability index is, setting by setting: under setting [1], 2.75 ± 1; under setting [2], 3.19 ± 0.55.
Take YFFLYQYCSIHCSDRKQVRNIAN [CSTF3]: the protein stability index by setting is: under setting [3], 3.03 ± 1.1; under setting [4], 3.22 ± 0.71.
YFTNRKVNSVCWASLNHLDSHILL [DCAF4] yielded a protein stability index under setting [1] of 2.82 ± 0.56 and a protein stability index under setting [2] of 2.42 ± 0.21.
Taken in the same sequence, the figures for YFVSESFEDAKEKMREFTKTIKRP [TPH1] were 3.15 ± 0.19 and 3.41 ± 0.14.
Taken in the same sequence, the figures for YGVASCEACKAFFKRTIQGSIEYS [ESRRA] were 2.34 ± 0.22 and 2.52 ± 0.072.
With YIPRRLEEAAMQKCLVTEAQTLLR [RSAD1], the protein stability index by setting is: under setting [1], 2.34 ± 0.23; under setting [2], 2.63 ± 0.17.
With YIPVIKRALNSVPVIIAAVGTRQN [RHOBTB3], the protein stability index runs as follows: under setting [1], 2.35 ± 0.52; under setting [2], 2.24 ± 0.35.
For the sequence YISETVLAIDAIHQLGFIHRDIKP [STK38L], the protein stability index worked out at 2.33 ± 0.74 under setting [1] and 2.56 ± 0.24 under setting [2].
Taken in the same sequence, the figures for YLDLPGSRQGSAEALRALQEGLWL [PKD2L1] were 2.71 ± 0.27 and 2.64 ± 0.34.
Consider YLNYYQGMLDVADESLTDLEAQPY [P3H4], for which the protein stability index reads like this: under setting [1], 2.8 ± 0.15; under setting [2], 2.81 ± 0.14.
Taken in the same sequence, the figures for YLRYVRRLDFFEKPDYEYLRTLFT [CSNK1G1] were 2.34 ± 0.48 and 2.24 ± 0.38.
As to YPAMTFYSPAVMNYSIPSNVTNLE [ESR2], the protein stability index under setting [1] is 2.63 ± 0.61 and the protein stability index under setting [2] stood at 2.93 ± 0.25.
Take YQHFLQDCVDGLFKEVKEKFKGWV [DLC1]: the protein stability index is, setting by setting: under setting [1], 2.26 ± 0.49; under setting [2], 2.02 ± 0.11.
For YQLADWCLHHICTNYNNVCRKFPR [RHOBTB2], the protein stability index was found to be 2.25 ± 0.52 under setting [1] and 2.23 ± 0.14 under setting [2].
As for YQPLVTMDDAMERTVQSFRHLRRV [NSDHL], the protein stability index reads like this: under setting [1], 3.14 ± 0.24; under setting [2], 3.22 ± 0.31.
Regarding YQRWIYRVDPTRVNEFGMSGEDPT [CLPTM1], the protein stability index by setting is: under setting [1], 2.6 ± 0.34; under setting [2], 2.72 ± 0.3.
In the case of YQTEQSLRQLVESDINSLRRILDE [KRT33B], the protein stability index by setting is: under setting [1], 3.44 ± 0.16; under setting [2], 3.61 ± 0.3.
In the case of YRERRDSDTYRCEERSPSFGEDYY [CLK3], the protein stability index under setting [1] is 4.37 ± 0.2 and the protein stability index under setting [2] amounted to 4.29 ± 0.21.
On to YRQHCTLELGSYIKDLSVVHSDLS [CTDNEP1], for which the protein stability index is, setting by setting: under setting [1], 2.4 ± 0.41; under setting [2], 2.34 ± 0.25.
For the sequence YSYRRLGEEALSLQALDPQQCVDK [SLC22A15], the protein stability index was found to be 4.05 ± 0.45 under setting [1] and 4.05 ± 0.31 under setting [2].
Taken in the same sequence, the figures for YVDIHTGLSGSGVAFVCAFSEALA [PYCR3] were 2.72 ± 1.2 and 2.4 ± 1.
As for YVTPSDFDQLKQFLTFDKQVLRFY [EFHC1], the protein stability index reads like this: under setting [1], 2.03 ± 0.32; under setting [2], 2.28 ± 0.29.
For YYKPGLLMMCFILPTLVPWYFWGE [SCD], the protein stability index came to 3.24 ± 0.7 under setting [1] and 2.83 ± 0.52 under setting [2].

The record behind these values is the supplement of paper PMC10567573.
